The results in this text go back to publication PMC3493456.

By Kd is commonly meant the constant that tells how readily two partners part at equilibrium.

In data set [1] the target is DNA polymerase beta WT (242Pro) (Homo sapiens, UniProt P06746 1-335). In words: EMSA; EMSA as described previously (ref 34); buffer, salt, pH and temperature not given in the material. In general terms: A gel shift assay detects complexes by their altered migration in electrophoresis.
The target in data set [2] is DNA polymerase beta P242R (rs3136797) (Homo sapiens, UniProt P06746 1-335, P242R). The data set is described as above.

B1: 1-bp gapped DNA (dsDNA)
DNA 1: GCCTCGCAGCCGTCCAACCAAC
DNA 2: CAACCTCGATCCAATGCCGTCC
DNA 3: GGACGGCATTGGATCGAGGTTGAGTTGGTTGGACGGCTGCGAGGC
modifications: 5' phosphate on downstream oligo (S8)
For B1, the Kd in data set [1] and in data set [2] was 5 nM in each case.
